Test: soluble fraction after stress (log2 fold change); higher = more stays soluble; pooled small domains, quantitative proteomics
Details: stress: pH 4
In short: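 Custom libraries of small protein domains were pooled and measured with high-throughput quantitative proteomics after pH 4 stress. The read-out is the fold change in the amount of each domain that stays soluble after the acid stress, taken as a measure of aggregation propensity. Fold changes are on a log2 scale, and higher values mean more of the domain stayed soluble.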

## HMSNIQLVENLYRLRKAHHYTQQEISDLLNISRQAYSNYETSKRTPDLDSLMRLADIYGVSLDQLVNHP
  soluble fraction (log2): -0.347

## HMSNLENSLNESLSLLKSNKYNEALEILKKIEIEDSRVFFLLGTIYSVMKNINLGEEFLIKASK
  soluble fraction (log2): -1.32

## HMSNLGLQIVRTLTDAGKGVVFITHKLKEALTIADRINVLRRGKVVGDADPKTASESQIAEMMVGRPVQL
  soluble fraction (log2): 0.0653

## HMSNMWVWSKLSGIQWMDAWEDRFHGNPNTVITRLKTNKTVRVEVYTETEQEALDIKKLFGGSIRKLV
  soluble fraction (log2): 0.103

## HMSNRFIQFRQRAIDWLNSDRDFNAGILLLEESGFKPGVVAKLKRHGVNGPEAKKRLKFLINELVKAWA
  soluble fraction (log2): -0.374

## HMSNVKVYPNPTSGKLTIDAENYKGVEVYDTSGRLIVKSELRTIDLEEQSKGLYLLKVNANGTTQEFKVFK
  soluble fraction (log2): -0.977

## HMSNYLKSVEVFDPITNKWSYVSAMKVRRGYVAVVATMDRLYAIGGYDGENYLSTVEMYNPDTN
  soluble fraction (log2): 0.0787

## HMSPAVSLITGKLGAETYYKQGLKKAKEKDYEGALDDLIKAYEFFPDKKIKTQVDKLASFLGKPPIL
  soluble fraction (log2): 0.0374

## HMSPIKAGDLVKITGTKYYRGQTIPSWVKAKNWFVHSVSGDRAVINKSEDGKNAIMSPVKVSNLALVT
  soluble fraction (log2): 0.0492

## HMSPILTPDQATKAYGKDGVLYIHSNKERTIYIYDVTGRTVRILEAVEGENQINGLEKGIYFLEGQKVAV
  soluble fraction (log2): -0.378

## HMSPLQLGNYNTLRITRFTDHGAYLDGGDVGEILMPKTYVLPEMKPGDEVRVFVYLDQEERLVGTTET
  soluble fraction (log2): -1.44

## HMSPPVIQQGQDVRLIYKGTGFAVSNEGKALNTAADGQVARARTGGGQTVSGIARPGGIIEIT
  soluble fraction (log2): 0.103

## HMSPQPPNQEAVRTRILDQAAHLFLTIGYAETTVRRIAGAVGIKAASLYHHFGSKDEVFESILIR
  soluble fraction (log2): 0.21

## HMSPRADRSVNLDVGETVQIDDWGADGTAQIRYRGAPWTAVLRPGHTPHPGPHRVIELVGSRLLVEP
  soluble fraction (log2): -0.746

## HMSPRAIYVTTSDLNMRMQPSPNAYKRGVAPRGTELLVVEWGDDWSKVIFEGDTAYAASRYLSYVKDEP
  soluble fraction (log2): -0.419

## HMSQDEVVADMKADLGPDADNIIRSNIQWADGLVRKGILTESEREELDVMGGTPEAQRILVKLRTMQG
  soluble fraction (log2): -0.539

## HMSQDTLIENGKVFLIHKVVAGQTLYGLSKAYNITIEDIIKYNPQAENGIKIGEDIKIFLKEE
  soluble fraction (log2): -1.1

## HMSQEHTVPDYKDMEATVVYADLTQKGLNYEIAQETSPTIKEGNVTQTIPGMNEKVVSGDTITVFVSTGTG
  soluble fraction (log2): -0.907

## HMSQIDLQIGHKIKSKRRKLGISQADMAKKLYISPSYLNLIESGKRKINVDLLLKLSNELGIEMSDIS
  soluble fraction (log2): 0.33

## HMSQIILSARSGHAALRHRLGELGYTFADKEFDDIYERFLEVADQKKEVYDEDLESIVQERQRD
  soluble fraction (log2): -0.559

## HMSQITEADYIPNTDKTWGELMEETGESLPNLVERYNNEMTKSNGKEQPQSIIQRIIEDYQMVS
  soluble fraction (log2): -0.0864

## HMSQLSDEQELRDIARGIIEGNPNEAEKYRAGRTGLLGFFVGKLMAETEGKANPRLASRILKELLE
  soluble fraction (log2): -0.441

## HMSQLSQIVDAFGGLRPFARALNKPPSTVQYWIEKGGIPASVVSPIMKLSEEKGLGLSRDQVSAAVS
  soluble fraction (log2): 0.0542

## HMSQLTVGTVVTGNASLQTQGLKLPSFASGSRPASPNIGQMIWNSSDAKAQIWNGSEWDDVG
  soluble fraction (log2): ≥ 0.43

## HMSQNVSFTVDSGQAGLRLDVFLSQADPAFSRSQIKYAIEEGDVTVNGKEPKVSQHLKDGDIVELHLE
  soluble fraction (log2): 0.114

## HMSQQEAQLNSLVKIYESMKPKDAARIFDTLDMDVLLDVVMRMKEARSAAVLAEMTPDRAKEVTLQLAD
  soluble fraction (log2): -1.8

## HMSQTDQALRHLIREAWATLPQRQQQAVELAYYEGLPDTEIAARLNQPVEEVKTSIVLGMAHLREALHSY
  soluble fraction (log2): -0.198

## HMSQTDTDAKDARQKILALLSDGEWHQKTELLKIDAPKEAVSNAIRYLVLEELISIDHAKVRA
  soluble fraction (log2): -0.465

## HMSQTVKYVNTTSGLNMRTGPATSYAKITTIAYGQSVNVLSTSNGWSKINYSGSTGYVSSQYLQSKKPS
  soluble fraction (log2): 0.183

## HMSQVHYAVLFKNASAAEATEIVTYARETLGVQDIKINANGDILVPEDKVEEMRVSMSIAGFPK
  soluble fraction (log2): -0.349

## HMSQVSTKYINVSSAYVRSKPSKDGEIVTSLIKNTDVTVTGENGDWYKIKFNNYEGYIFKELLSDSKLEE
  soluble fraction (log2): -0.35

## HMSRAMFEMHADWQPTDSIRGLLGRAGLPTDIAKLDQSRIGDFVNHWFGKPDRNTADSWNGLLVGWLKRTQ
  soluble fraction (log2): -0.787

## HMSREEFLAGLEEALAGEVPASVIRENLNYYNSYISQEMAKGRTVDEIVDEIGEPRIVARTIIDSSEAAGE
  soluble fraction (log2): -0.246

## HMSRELVILGNSMLNNALKAFHVSPASIKKKHWDKLILDYHLESKNNILIDIALGKRINVMVAHQLTSIID
  soluble fraction (log2): ≥ 0.43

## HMSREVTVPPLSGLTLRDAARTLAERGLLMEAEGQGAVHRQDPPAGTRVPTGTPVRVFLTLPEQNS
  soluble fraction (log2): -0.511

## HMSRGTLFVDVRGAVAKPGVYELPEKSRVFQAVEAAGGLLPEALERLVNQAAELTDGQQVYIPFEGEE
  soluble fraction (log2): 0.429

## HMSRLLRTDAHLQYAAERGLPVTASAYTPVFAGAKQYTGRIESFDAQTIRFADGPAVERKAVARLEAE
  soluble fraction (log2): 0.138

## HMSRLLTTRQREVFEVATREGFWDVPRRINLSELAKVLGVAKSTLSSQLQRIESAVFHAFTDEIRRQS
  soluble fraction (log2): 0.313

## HMSRMLTVKQREVFDLAMREGYWETPRRITLTMLASLLSVSKSTLSVQLHKIEGTVLSSFSDEVRRRS
  soluble fraction (log2): -0.011

## HMSRQDYLQTIYRLSVGKGYTTNKKIADFLSVSKPSVTEMIGKLQGEGLVAMDGAHIFLTEDGAEQ
  soluble fraction (log2): 0.108

## HMSRVTVDVNPDVLQWAIDKKGKGDIKNKFPKIDEWLNGISKPTIHQLENFAKYVSVPFGYLLLSKPPVE
  soluble fraction (log2): 0.00473

## HMSRYQDIANDIEKDIIEKKYTRKLPEQFELAQKYQTSRVTIVHALKILQNKKLIRTVKGHGTFITS
  soluble fraction (log2): ≥ 0.43

## HMSSDEDELESIIKRVFADNPIELERLQNGEDKLIKFFMGLVMRQTKGKYPPKIIIDLLNKS
  soluble fraction (log2): -1.54

## HMSSDLDQYMKNIRKQHNLSKREFAKQLGISAATIVRIENGITVSPSKNLISKLAYYLQKSEVEILQDIQS
  soluble fraction (log2): -0.393

## HMSSEMATLRSIVDNKQAEKVHGMMVDMFTASAMVQVYDKVNDENQAKMREMLKTQKGFQRMADFALSKI
  soluble fraction (log2): -0.535

## HMSSEPASLVGKTGVAASVLRPSGRVEVNGEYYDAVSINGFIEKGESVFVHKYENAQLYVSKNSE
  soluble fraction (log2): -0.183

## HMSSESIKTDKNVGVGSTLEELEKAYGSDYTLSGKMYRYYQDDNSKYMYFFILNDVVQYYGYGIDV
  soluble fraction (log2): -1.38

## HMSSIDLTARSGRAALKHRLSLLGYEFSKIELETLYVRFIELADEKKLLHDEDLIELVKEKN
  soluble fraction (log2): -0.655

## HMSSIRDVVPEGLLSDREKLVLVLAFDRDLDGPDMARTLGISANTVRVLKARALKKLRQAGIQP
  soluble fraction (log2): -0.34

## HMSSIVLTARSGRAALAYRVKSIGVDLSKDQLDLVYKTFLGFADKKKEIIDTDIPQILKASGI
  soluble fraction (log2): -0.265

## HMSSIYVYPNPTANRIYIQADNIKKAELFDLMGRKVRSTNQPQIDISRLSRGNYILQVKTQNNTQSFKIIK
  soluble fraction (log2): 0.0347

## HMSSKAVLEKFEALFIDQMLQSMRKATVRSELFDSEGIKLYESLFDKEISEELAKSGGLGLTKDLEQQL
  soluble fraction (log2): -1.35

## HMSSKFKIVGEILSIKKSDILYIIEILSNNEVVKATAVEDEIKDLKIGDKILLSSKAFNPIVNK
  soluble fraction (log2): -1.09

## HMSSLTDNFVKALSYYLALSGKSKKEVADGIGIPPTTFSSWSNGKHLPDMDRLQNLATYLGAPVSEFFDFT
  soluble fraction (log2): 0.051

## HMSSPVGIAQATTYVYVRAGHSMQAAKVGVLSPGEKVGVTGRSAQGFSEVVYNGVHRWVGSRYLSPT
  soluble fraction (log2): ≥ 0.43

## HMSSQWWYSAGGERKGPVDFATLRGLYVQGAIDGRTLAWREDMQGWEAVNDIPDLEPLRRAVPPEL
  soluble fraction (log2): 0.11

## HMSSRSLSYSDFIERVDAGQVSKVVMDGERLVVVGQDGTSYVTIKPPGDQVTENLSRELISKGVEVEAEPQ
  soluble fraction (log2): ≥ 0.43

## HMSSRSLTYSDFIERVDAGQVDAVTLDGERIVIRAKDGNTYVAIKPQGEDVTGSLTRDLIAKGVDVEAEPQ
  soluble fraction (log2): 0.0187

## HMSSSDYDVYNKAINLMLNLLKEPKSIEEVTASLNITKSQAITWINRALNEGKIIKTNRPVRYVVNN
  soluble fraction (log2): 0.0142

## HMSSSYMVRITTSVLNVRKGPGTNYGITTKVKKGEVYTIVAEEKNGNTTWGKLKSGTGYISLGYTER
  soluble fraction (log2): -0.145

## HMSSSYVYGGNGEIVILSDVSKHLNVYNLNGQKVTDVNLTAGELQRISIATGIYVVGGKKIVV
  soluble fraction (log2): -0.121

## HMSSVGELEVGNIFEGTVNSVRGGKVLLALGNGQMVLAQMDGRVNITPGSSMFFQVKSNDGETVAIRPYTG
  soluble fraction (log2): 0.156

## HMSSWAEGLTERERHTLMWITKGLSNKLIARELGISDSTVKVYVKNLLRKLNVNSRLELAAWVHTHPL
  soluble fraction (log2): -0.246

## HMSSYTQEDVRSGILYMAQLKPRNIEEFVSTLAFSKDDIMDNLSFLVDEGFLKFDADTDTYFNPVPL
  soluble fraction (log2): -0.604

## HMSTADGGYPSIVINDGRVIDTNLQKLGLDRSWLSAELKRQGKGSEKDIFLMTVNQRREVYISVKEA
  soluble fraction (log2): -0.589

## HMSTEAFLGTEGEVVLPLLPDGLGKIRLHVADQDVELPARTGGEPIQIRERVVVVRFRDGIAEVEPAP
  soluble fraction (log2): -0.525

## HMSTEDYLKTIYILESQQGVHGSDVARMLKVTRPTVSIALKALEQEGYVWMDESRLVHLTDSGLQIAKDT
  soluble fraction (log2): 0.149

## HMSTESAHLGERMLNQALRAMHIEPDQITEAHWQKLIRDYGLKKKSEILTDIGLGKRQNVMVAHQLLAMG
  soluble fraction (log2): -0.143

## HMSTFKSYRGKITASSGVNIRTGAGTNYNKNGALTYNSVVTIVDEKKVSGTTWGKLADGRGWISLDYLKK
  soluble fraction (log2): 0.105

— the domain aggregation screens of Martell et al. (2025)
